The results in this text go back to patent publication US20170260575A1.

The target in this assay is integrin receptors on NIH/3T3 fibroblast cells. As to the kind of experiment: cell-based or functional assay.

[ ]: non-standard residue; d: D form.

B1: cyclic Arg-Gly-Asp-d-Phe-Lys (cRGDfK) peptide (peptide)
peptide: cyclo(RGD[dF]K)
modifications: also: biotin-labelled (cRGDfK-biotin), bound via streptavidin
In turn, B1 displayed a decrease in Cy3B fluorescence under individual cells, Ttol=12 pN duplexes of 13.7%; a decrease in Cy3B fluorescence under individual cells, Ttol=56 pN duplex of 6.5%; a fold decrease in MCR signal of controls (duplexes lacking cRGDfK, scrambled duplexes) against the 12 pN cRGDfK surface of 150 fold.
